Substrate: Nc1nc2c(ncn2[C@@H]2O[C@H](COP(=O)(O)OP(=O)(O)OP(=O)(O)O)[C@@H](O)[C@H]2O)c(=O)[nH]1
Test: purified protein
Type: biochemical, Homo sapiens
Details: 12 μM GTPBP8, 0-3 mM GTP, kit reaction buffer, 25 °C, intrinsic GTPase activity

B1: GTPBP8 (GTP-binding protein 8) (Homo sapiens) (protein)
chain: MAAPGLRLGAGRLFEMPAVLERLSRYNSTSQAFAEVLRLPKQQLRKLLYPLQEVERFLAPYGRQDLHLRIFDPSPEDIARADNIFTATERNRIDYVSSAVRIDHAPDLPRPEVCFIGRSNVGKSSLIKALFSLAPEVEVRVSKKPGHTKKMNFFKVGKHFTVVDMPGYGFRAPEDFVDMVETYLKERRNLKRTFLLVDSVVGIQKTDNIAIEMCEEFALPYVIVLTKIDKSSKGHLLKQVLQIQKFVNMKTQGCFPQLFPVSAVTFSGIHLLRCFIASVTGSLD
notes: His-tagged, purified; full-length human CDS in pENTR221, GTPBP8 cloned into pHAT (and pGAT2); full-length 284 residues
In the case of B1, the Km is reported as 200 ± 40 µM and the kcat is reported as 0.000132 ± 5.5e-05 s⁻¹.

Source: PMC10654211, “GTPBP8 is required for mitoribosomal biogenesis and mitochondrial translation” (Cellular and Molecular Life Sciences: CMLS, 2023)
